System: βlox5 cells
Experiment: RT-PCR analysis of pancreatic hormone gene expression in βlox5 cells
Type: cell-based, human
Details: βlox5 cells expressing PDX-1; data not shown
Method: FIG. 2: RT-PCR analysis of pancreatic hormone gene expression in βlox5. The conditions tested were βlox5 cells grown in monolayer culture, βlox5 cells infected with a retroviral vector expressing PDX-1, βlox5 cells grown as three-dimensional aggregates, and βlox5 cells treated with exendin-4. FIG. 2(A) insulin; FIG. 2(B) quantitative RT-PCR analysis of insulin gene expression; FIG. 2(C) other pancreatic hormones. Exendin-4 (Sigma) was used at a concentration of 10 nM. RT-PCR for insulin, somatostatin, glucagon, and IAPP have been described previously (Itkin-Ansari et al., submitted). Quantitative RT-PCR was done by interpolation from a standard curve constructed using a plasmid containing the human insulin cDNA.
PDX-1 also acted synergistically with cell-cell contact to further increase the level of somatostatin expression about 1,000-fold above the cells not expressing PDX-1, to a level similar to that found in normal human islets. To determine whether βlox5 could be induced to express pancreatic hormones, recombinant PDX-1 was expressed in βlox5 using a retroviral vector. […] Therefore, other factors were examined for their ability to induce hormone expression in βlox5 cells expressing PDX-1. […]

B1: betacellulin (protein, UniProt P35070 32-111, looked up)
Betacellulin: DGNSTRSPETNGLLCGDPEENCAATTTQSKRKGHFSRCPKQYKHYCIKGRCRFVVAEQTPSCVCDEGYIGARCERVDLFY
notes: factor reported to induce endocrine differentiation in cell lines and primary cells
For B1, the “effect on hormone expression in βlox5 cells” value was “no effect”.

Source: patent US6911324B2, “Induction of beta cell differentiation in human cells” (The Regents of the University of California, priority 2001, dated 2005)
